Assay results: patent US20090136484A1

Key:
[1] = molecular target: T1, Biotin-… (epitope sequence from candidal Hsp90) (Candida); experiment: ELISA, biotinylated peptide on streptavidin plate, anti-His-HRP detection; Site 1; sample in 0.5 M urea, 0.2 M L-arginine pH 9.5
[2] = molecular target: T1, Biotin-… (epitope sequence from …); experiment: ELISA, biotinylated peptide on streptavidin plate, anti-His-HRP detection; Site 1; sample in 50 mM Tris, 3 mM DTT, pH 9.0
[3] = molecular target: T1, Biotin-… (epitope sequence from …); experiment: ELISA, biotinylated peptide on streptavidin plate, anti-His-HRP detection; Site 1; sample in 50 mM Tris, pH 9.0
[4] = molecular target: T1, Biotin-… (epitope sequence from …); experiment: ELISA, biotinylated peptide on streptavidin plate, anti-His-HRP detection; Site 2; sample in 50 mM Tris, 1 M sucrose, ~0.2% Tween20, 3 mM DTT, pH 3.0
[5] = molecular target: T1, Biotin-… (epitope sequence from …); experiment: ELISA, biotinylated peptide on streptavidin plate, anti-His-HRP detection; Site 1; sample in 50 mM Tris, 1 M sucrose, ~0.2% Tween20, 3 mM DTT, pH 3.0
[6] = molecular target: T1, Biotin-… (epitope sequence from …); experiment: ELISA, biotinylated peptide on streptavidin plate, anti-His-HRP detection; Site 2; sample in 50 mM Tris, 3 mM DTT, pH 9.0
[7] = molecular target: T1, Biotin-… (epitope sequence from …); experiment: ELISA, biotinylated peptide on streptavidin plate, anti-His-HRP detection; Site 2; sample in 0.5 M urea, 0.2 M L-arginine pH 9.5
[8] = molecular target: T1, Biotin-… (epitope sequence from …); experiment: ELISA, biotinylated peptide on streptavidin plate, anti-His-HRP detection; Site 2; sample in 50 mM Tris, pH 9.0

B1: MYC123 ("wild type" Mycograb) scFv peptide (scFv)
scFv: MAEVQLVESGAEVKKPGESLRISCKGSGCIISSYWISWVRQMPGKGLEWMGKIDPGDSYINYSPSFQGHVTISADKSINTAYLQWNSLKASDTAMYYCARGGRDFGDSFDYWGQGTLVTVSSGGGGSGGGGSGGGGSDVVMTQSPSFLSAFVGDRITITCRASSGISRYLAWYQQAPGKAPKLLIYAASTLQTGVPSRFSGSGSGTEFTLTINSLQPEDFATYYCQHLNSYPLTFGGGTKVDIKRAAALEHHHHHH
[1]
  ELISA activity [%] compared with the reference standard: 90%
[2]
  ELISA activity [%] compared with the reference standard: 85%
[3]
  ELISA activity [%] compared with the reference standard: 71%
[4]
  ELISA activity [%] compared with the reference standard: 130%
[5]
  ELISA activity [%] compared with the reference standard: 135%
[6]
  ELISA activity [%] compared with the reference standard: 131%
[7]
  ELISA activity [%] compared with the reference standard: 78%
[8]
  ELISA activity [%] compared with the reference standard: 95%
